The results in this text go back to US20230189818A1, “RNA-BASED CONTROL OF BOTRYTIS” (priority 2021, published 2023).

This data set deals with Botrytis. As to the kind of experiment: Open-air field trials on grape (Example 4.2, AUDPC of % disease severity). Format: in vivo, Botrytis cinerea. Conditions: for Disease compared with the biological standard program of Serenade and JMS Stylet Oil (AUDPC) / Disease caused by Botrytis compared to untreated check (AUDPC): both trials; for Disease caused by Botrytis compared to untreated check (AUDPC): FIGS. 7 and 8; for Disease compared with the chemical program of Miravis Prime and Switch (AUDPC): second trial. The method, then:
RNAi compositions, each containing a dsRNA comprising a trigger sequence (GS730) described herein, were evaluated for ability to control Botrytis on grape in open-air field trials. Non-formulated and formulated compositions were tested. Non-formulated compositions were tank mixed with water and Silwet L-77 0.1% v/v. Formulated samples were formulated with RO water, propylene glycol, a linear alcohol ethoxylate, a lignosulfanate, sodium citrate dihydate, a polyacrylic acid polymer, two biocide compositions, anhydrous citric acid, and an antifoam, all of which are readily commercially available. Non-formulated and formulated GS 730 were each tested at concentrations of 50 g ai/ha and 100 g ai/ha. A standard biological program of Serenade 9.4 I/ha alternating with JMS Sylet Oil 1% v/v was used as a positive control. Chemical standards, Miravis Prime 392 g ai/ha ai and Switch 610 g ai/ha were applied to a second positive control group in alternating applications. An untreated group was used as a negative control
Positive controls were applied to grape plants at bloom, bunch closure, veraison, and 7-10 days before harvest. Test applications were made on the same timing as the positive controls with additional applications seven days after bloom, bunch closure, veraison, and 7-10 days before harvest. Disease state was evaluated over the course of three to four weeks, starting two days after the last application (Slide 3) or 18 days […] the last application. Percent Disease Severity was assessed and AUDPC was calculated in the same manner as noted in Example 4.1.

Where [1] appears, read: non-formulated, 50 and 100 g ai/ha.

B1: GS730: dsRNA trigger targeting B. cinerea Bcsec15 (XM_024692064.1); trigger SEQ ID NO 19, RNA 31, reverse complement 43 (nucleic acid, listed as Botrytis cinerea)
sense: UCAACGCAGUCUCCAAAGCUUUGGAUGAAUUCGAUAACCCGGAUGUUAUUCUGCAAACCAAGAAUGUGAUAGCAUUGUUCAUCCAAACAAUGGAGGGUUGGGGAUAUUCAGUUGCCAUAUUAGAUGCUUAUGUGCUUAAGCUUUUCUAUAGAUAUGCUGAUUUGUUAAAACGGAAAUUCAGCACAGAUUUUCAACAGAUUGUGUCUACCGAUGAAUACAUGCCUAUGCCUGUCAAUAGCGAAGAAGACUUUGAUAAAAUCAUUCAAGUCAGUUGGUAUGUUCCGGACAGACCGAAAGAAGAAUACACAUUCCCCGGUGUAUUACCAUUCUCCCAGAUGUACCCAAUGUGCUGUAUAGAUAUCAGAAAUUUCCUGAAUCGAUUCUACUUCAUAAUGGAUGAUCAUUUUCAACAGCCAAACAUUAUUGAUGAGACACUUAAGAAGUCGAUAGAUGAGCUUCUGUCUGAGGAUAUUUGUGA
antisense: UCACAAAUAUCCUCAGACAGAAGCUCAUCUAUCGACUUCUUAAGUGUCUCAUCAAUAAUGUUUGGCUGUUGAAAAUGAUCAUCCAUUAUGAAGUAGAAUCGAUUCAGGAAAUUUCUGAUAUCUAUACAGCACAUUGGGUACAUCUGGGAGAAUGGUAAUACACCGGGGAAUGUGUAUUCUUCUUUCGGUCUGUCCGGAACAUACCAACUGACUUGAAUGAUUUUAUCAAAGUCUUCUUCGCUAUUGACAGGCAUAGGCAUGUAUUCAUCGGUAGACACAAUCUGUUGAAAAUCUGUGCUGAAUUUCCGUUUUAACAAAUCAGCAUAUCUAUAGAAAAGCUUAAGCACAUAAGCAUCUAAUAUGGCAACUGAAUAUCCCCAACCCUCCAUUGUUUGGAUGAACAAUGCUAUCACAUUCUUGGUUUGCAGAAUAACAUCCGGGUUAUCGAAUUCAUCCAAAGCUUUGGAGACUGCGUUGA
In the case of B1, under “formulated, 100 g ai/ha”, the “Disease compared with the biological standard program of Serenade and JMS Stylet Oil (AUDPC)” value is on record as “not statistically different”; the “Disease caused by Botrytis compared to untreated check (AUDPC)” value was “significantly reduced disease”; the “Disease compared with the chemical program of Miravis Prime and Switch (AUDPC)” value is listed as “comparable”. For the same molecule, under setting [1], the “Disease compared with the biological standard program of Serenade and JMS Stylet Oil (AUDPC)” value is listed as “not statistically different”; the “Disease caused by Botrytis compared to untreated check (AUDPC)” value is reported as “significantly reduced disease”; the “Disease compared with the chemical program of Miravis Prime and Switch (AUDPC)” value is listed as “comparable”.
